Laboratory results from publication PMC6995525, “Structure of the PUB Domain from Ubiquitin Regulatory X Domain Protein 1 (UBXD1) and Its Interaction with the p97 AAA+ ATPase” (Biomolecules, 2019).
“Also recorded” adds a separate entry of the source.

How the values were obtained:
p97-C10 peptide = assay: Fluorescence anisotropy, UBXD1-PUB constructs titrated to 5,6-FAM labeled p97-C10 peptide; assay type: binding; settings: for Kd: UBXD1-PUB (150–264) mutants titrated to 5,6-FAM labeled p97-C10 peptide (100 nM), 50 mM NaKPi, pH 6.5, 25 °C, fluorescence anisotropy ex 495/em 518 nm, fit of averaged triplicates ± standard deviation of the fit; for change in p97 binding affinity versus wild type, in words / fold change in KD / affinity versus wild type: UBXD1-PUB mutant vs wt, p97-C10, fluorescence anisotropy
Source text: N-terminal hexahistidine-tagged UBXD1-PUB (150–264) was cloned into a pET28a expression vector using the NdeI and HindIII restriction sites. UBXD1 point mutants were produced by site-directed mutagenesis following the Quikchange protocol (Agilent Technologies).
Unlabeled p97-C10 ([…]), p97-C13 ([…]), and phosphorylated p97-C13 ([…]pYG) peptides for NMR and ITC as well as 5,6-FAM-labeled peptides for fluorescence studies were purchased from Caslo ApS (Denmark).
(§1) Fluorescence anisotropy measurements (excitation: 495 nm; emission 518 nm) were carried out on a JASCO FP-8300 fluorescence spectrometer in 50 mM NaKPi, pH 6.5 at 25 °C, titrating PUB constructs to 5,6-FAM labeled p97-C10 peptide (100 nM). All titrations were performed in triplicate. Binding curves of the averaged data were fitted with GraphPad Prism 5.0 (GraphPad) using the quadratic binding equation for a one-site specific binding model:(3) r=r0+rmax⋅(F+x+KD)−(F+x+KD)^2−4⋅x⋅F/2⋅F, with r = anisotropy, r0 = anisotropy without protein, rmax = maximum anisotropy, F = fluorescent probe (labeled peptide or protein) concentration, x = titrant protein concentration, and KD = dissociation constant.
(§2) Data points are shown as means ± standard deviation based on the three experiments. KD values are given as fit of the averaged data points ± standard deviation of the fit.

[1] = CD spectroscopy, secondary structure composition; assay type: physicochemical; settings: 0.15 mg/mL protein, 50 mM NaKPi pH 6.5, 25 °C; for α-helical content: 25 scans averaged, DichroWeb CDSSTR
Procedure: CD spectra were recorded on a Jasco J-170 CD spectrometer in a 1 mm quartz cuvette at 25 °C averaging 25 scans. Samples consisted of 0.15 mg/mL protein in 50 mM NaKPi, pH 6.5. The secondary structure composition was analyzed using DichroWeb (http://dichroweb.cryst.bbk.ac.uk) employing the CDSSTR algorithm.

full-length p97 (p97-fl) = assay: Fluorescence anisotropy, UBXD1-PUB with full-length p97; assay type: binding; settings: isolated PUB domain of UBXD1
Procedure: as §1, §2

p97 = settings: qualitative pulldown; ref [29]; cited from earlier work
Source text: The PIM binding pockets of UBXD1-PUB and its closest homologue PNGase-PUB and the position of the p97-PIM peptide inside the pocket are almost identical, with small differences (Figure 6 and Figure 7). The side chains of the conserved UBXD1-Y181 and PNGase-Y38 are in the same position, stacking with p97-Y805 and forming a putative H-bond (3.2 or 3.1 Å, respectively) to the backbone carbonyl of p97-L804. UBDXD1-Y194 and PNGase-Y51, which represent the second conserved tyrosine of the PIM pocket, both stack with p97-Y805 and are only slightly shifted with respect to each other. However, the intr ...

Molecule	Kd (p97-C10 peptide) [µM]	change in p97 binding affinity versus wild type, in words (p97-C10 peptide)	other results
N201D: UBXD1-PUB point mutant (protein, left off: His6, N-terminal, cleaved, UBXD1-PUB point mutant) STDPVAASIMKIYTFNKDQDRVKLGVDTIAKYLDNIHLHPEEEKYRKIKLQDKVFQERINCLEGTHEFFEAIGFQKVLLPAQDQEDPEEFYVLSETTLAQPQSLERHKEQLLAAE	280 ± 3	largest decrease in binding affinity	–
E206R: UBXD1-PUB point mutant (protein, left off: His6, N-terminal, cleaved, UBXD1-PUB point mutant) STDPVAASIMKIYTFNKDQDRVKLGVDTIAKYLDNIHLHPEEEKYRKIKLQNKVFQRRINCLEGTHEFFEAIGFQKVLLPAQDQEDPEEFYVLSETTLAQPQSLERHKEQLLAAE	39.4 ± 0.9	–	–
K198E: UBXD1-PUB point mutant (protein, left off: His6, N-terminal, cleaved, UBXD1-PUB point mutant) STDPVAASIMKIYTFNKDQDRVKLGVDTIAKYLDNIHLHPEEEKYRKIELQNKVFQERINCLEGTHEFFEAIGFQKVLLPAQDQEDPEEFYVLSETTLAQPQSLERHKEQLLAAE	49.3 ± 0.8	–	–
Q200A: UBXD1-PUB point mutant (protein, left off: His6, N-terminal, cleaved, UBXD1-PUB point mutant) STDPVAASIMKIYTFNKDQDRVKLGVDTIAKYLDNIHLHPEEEKYRKIKLANKVFQERINCLEGTHEFFEAIGFQKVLLPAQDQEDPEEFYVLSETTLAQPQSLERHKEQLLAAE	8.3 ± 0.3	do not show a decreased affinity	–
V203A: UBXD1-PUB point mutant (protein, left off: His6, N-terminal, cleaved, UBXD1-PUB point mutant) STDPVAASIMKIYTFNKDQDRVKLGVDTIAKYLDNIHLHPEEEKYRKIKLQNKAFQERINCLEGTHEFFEAIGFQKVLLPAQDQEDPEEFYVLSETTLAQPQSLERHKEQLLAAE	25.3 ± 0.5	–	–
Y181F: UBXD1-PUB point mutant (protein, left off: His6, N-terminal, cleaved, UBXD1-PUB point mutant) STDPVAASIMKIYTFNKDQDRVKLGVDTIAKFLDNIHLHPEEEKYRKIKLQNKVFQERINCLEGTHEFFEAIGFQKVLLPAQDQEDPEEFYVLSETTLAQPQSLERHKEQLLAAE	28.4 ± 0.6	–	–
Y194A: UBXD1-PUB point mutant (protein, left off: His6, N-terminal, cleaved, UBXD1-PUB point mutant) STDPVAASIMKIYTFNKDQDRVKLGVDTIAKYLDNIHLHPEEEKARKIKLQNKVFQERINCLEGTHEFFEAIGFQKVLLPAQDQEDPEEFYVLSETTLAQPQSLERHKEQLLAAE	53 ± 2	large decrease in affinity	α-helical content [1]: 30%; folding / secondary structure, in words ([1]; compared with wild type): partial loss of secondary structure
Y194F: UBXD1-PUB point mutant (protein, left off: His6, N-terminal, cleaved, UBXD1-PUB point mutant) STDPVAASIMKIYTFNKDQDRVKLGVDTIAKYLDNIHLHPEEEKFRKIKLQNKVFQERINCLEGTHEFFEAIGFQKVLLPAQDQEDPEEFYVLSETTLAQPQSLERHKEQLLAAE	141 ± 2	largest decrease in binding affinity; also recorded: large decrease in affinity	α-helical content [1]: 50%
wild type (wt): N-terminal hexahistidine-tagged UBXD1-PUB (150–264), tag cleaved with thrombin (protein, left off: His6, N-terminal, cleaved, N-terminal hexahistidine-tagged UBXD1-PUB (150–264), tag cleaved with thrombin) STDPVAASIMKIYTFNKDQDRVKLGVDTIAKYLDNIHLHPEEEKYRKIKLQNKVFQERINCLEGTHEFFEAIGFQKVLLPAQDQEDPEEFYVLSETTLAQPQSLERHKEQLLAAE	13.8 ± 0.3	–	affinity for full-length p97 relative to isolated PIM peptides (full-length p97 (p97-fl)): same range as for the isolated PIM peptides; α-helical content [1]: 80%
R207E: UBXD1-PUB point mutant (protein, left off: His6, N-terminal, cleaved, UBXD1-PUB point mutant) STDPVAASIMKIYTFNKDQDRVKLGVDTIAKYLDNIHLHPEEEKYRKIKLQNKVFQEEINCLEGTHEFFEAIGFQKVLLPAQDQEDPEEFYVLSETTLAQPQSLERHKEQLLAAE	88 ± 1	–	fold change in KD / affinity versus wild type (p97-C10 peptide): six; fold change in KD / affinity versus wild type (p97-C10 peptide; listed as R207 to E): 6 fold
N184A: UBXD1-PUB point mutant (protein, left off: His6, N-terminal, cleaved, UBXD1-PUB point mutant) STDPVAASIMKIYTFNKDQDRVKLGVDTIAKYLDAIHLHPEEEKYRKIKLQNKVFQERINCLEGTHEFFEAIGFQKVLLPAQDQEDPEEFYVLSETTLAQPQSLERHKEQLLAAE	28.7 ± 0.5	–	–
Y181A: UBXD1-PUB point mutant (protein, left off: His6, N-terminal, cleaved, UBXD1-PUB point mutant) STDPVAASIMKIYTFNKDQDRVKLGVDTIAKALDNIHLHPEEEKYRKIKLQNKVFQERINCLEGTHEFFEAIGFQKVLLPAQDQEDPEEFYVLSETTLAQPQSLERHKEQLLAAE	111 ± 2	largest decrease in binding affinity	–
N184D: UBXD1-PUB point mutant (protein, left off: His6, N-terminal, cleaved, UBXD1-PUB point mutant) STDPVAASIMKIYTFNKDQDRVKLGVDTIAKYLDDIHLHPEEEKYRKIKLQNKVFQERINCLEGTHEFFEAIGFQKVLLPAQDQEDPEEFYVLSETTLAQPQSLERHKEQLLAAE	80 ± 2	–	–
N201A: UBXD1-PUB point mutant (protein, left off: His6, N-terminal, cleaved, UBXD1-PUB point mutant) STDPVAASIMKIYTFNKDQDRVKLGVDTIAKYLDNIHLHPEEEKYRKIKLQAKVFQERINCLEGTHEFFEAIGFQKVLLPAQDQEDPEEFYVLSETTLAQPQSLERHKEQLLAAE	64.1 ± 0.8	–	fold change in KD / affinity versus wild type (p97-C10 peptide): 5 fold
K193E: UBXD1-PUB point mutant (protein, left off: His6, N-terminal, cleaved, UBXD1-PUB point mutant) STDPVAASIMKIYTFNKDQDRVKLGVDTIAKYLDNIHLHPEEEEYRKIKLQNKVFQERINCLEGTHEFFEAIGFQKVLLPAQDQEDPEEFYVLSETTLAQPQSLERHKEQLLAAE	17.7 ± 0.4	do not show a decreased affinity	–
PNGase K50A, Y51A double mutant: PNGase double mutant (protein, UniProt Q96IV0 2-654, looked up, variant K50A Y51A) Peptide-N(4)-(N-acetyl-beta-gl …: AAAALGSSSGSASPAVAELCQNTPETFLEASKLLLTYADNILRNPNDEAARSIRIGNTAFSTRLLPVRGAVECLFEMGFEEGETHLIFPKKASVEQLQKIRDLIAIERSSRLDGSNKSHKVKSSQQPAASTQLPTTPSSNPSGLNQHTRNRQGQSSDPPSASTVAADSAILEVLQSNIQHVLVYENPALQEKALACIPVQELKRKSQEKLSRARKLDKGINISDEDFLLLELLHWFKEEFFHWVNNVLCSKCGGQTRSRDRSLLPSDDELKWGAKEVEDHYCDACQFSNRFPRYNNPEKLLETRCGRCGEWANCFTLCCRAVGFEARYVWDYTDHVWTEVYSPSQQRWLHCDACEDVCDKPLLYEIGWGKKLSYVIAFSKDEVVDVTWRYSCKHEEVIARRTKVKEALLRDTINGLNKQRQLFLSENRRKELLQRIIVELVEFISPKTPKPGELGGRISGSVAWRVARGEMGLQRKETLFIPCENEKISKQLHLCYNIVKDRYVRVSNNNQTISGWENGVWKMESIFRKVETDWHMVYLARKEGSSFAYISWKFECGSVGLKVDSISIRTSSQTFQTGTVEWKLRSDTAQVELTGDNSLHSYADFSGATEVILEAELSRGDGDVAWQHTQLFRQSLNDHEENCLEIIIKFSDL	–	–	binding in pulldown assay (p97): did not show impaired binding
